B1: library; numbered along this chain (parent)
chain: MAAAAAAAAEQQSSNGPVKKSMREKAVERRSVNKEHNSNFKAGYIPIDEDRLHKTGLRGRKGNLAICVIILLFILAVINLIITLVIWAVIRIGPNGCDSMEFHESGLLRFKQVSDMGVIHPLYKSTVGGRRNENLVITGNNQPIVFQQGTTKLSVENNKTSITSDIGMQFFDPRTQNILFSTDYETHEFHLPSGVKSLNVQKASTERITSNATSDLNIKVDGRAIVRGNEGVFIMGKTIEFHMGGNMELKAENSIILNGSVMVSTTRLPSSSSGDQLGSGDWVRYKLCMCADGTLFKVQVTSQNMGCQISDNPCGNTH

Variants of: B1
Experiment: SGCB cell-surface expression functional score (HA stain, bin4 vs bin1, normalised to synonymous) (log10 ratio); higher = more cell-surface SGCB (functional)
In short: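 The functional score is a log ratio of variant frequency in the highest versus the lowest intensity bin, expressed as a median over codons and duplicate transductions. Codon-saturation libraries of HA-tagged, YFP-fused human beta-sarcoglycan were transduced by lentivirus at MOI <0.1 into HEK293 cells stably expressing alpha-, gamma- and delta-sarcoglycan, and the cells were stained on ice with Alexa Fluor 647 anti-HA, fixed and sorted into four 5% intensity bins before amplicon sequencing. Synonymous variants were scaled to mean 0, SD 0.5 within each section.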

Point of comparison: MAAAAAAAAEQQSSNGPVKKSMREKAVERRSVNKEHNSNFKAGYIPIDEDRLHKTGLRGRKGNLAICVIILLFILAVINLIITLVIWAVIRIGPNGCDSMEFHESGLLRFKQVSDMGVIHPLYKSTVGGRRNENLQITGNNQPIVFQQGTTKLSVENNKTSITSDIGMQFFDPRTQNILFSTDYETHEFHLPSGVKSLNVQKASTERITSNATSDLNIKVDGRAIVRGNEGVFIMGKTIEFHMGGNMELKAENSIILNGSVMVSTTRLPSSSSGDQLGSGDWVRYKLCMCADGTLFKVQVTSQNMGCQISDNPCGNTH [V136Q], “SGCB cell-surface expression functional score (log10)” value 0.22. Against it:
- MAAAAAAAAEQQSSNGPVKKSMREKAVERRSVNKEHNSNFKAGYIPIDEDRLHKTGLRGRKGNLAICVIILLFILAVINLIITLVIWAVIRIGPNGCDSMEFHESGLLRFKQVSDMGVIHPLYKSTVGGRRNENLVITGNNQPIVSQQGTTKLSVENNKTSITSDIGMQFFDPRTQNILFSTDYETHEFHLPSGVKSLNVQKASTERITSNATSDLNIKVDGRAIVRGNEGVFIMGKTIEFHMGGNMELKAENSIILNGSVMVSTTRLPSSSSGDQLGSGDWVRYKLCMCADGTLFKVQVTSQNMGCQISDNPCGNTH [F146S] — lower, -0.84
- MAAAAAAAAEQQSSNGPVKKSMREKAVERRSVNKEHNSNFKAGYIPIDEDRLHKTGLRGRKGNLAICVIILLFILAVINLIITLVIWAVIRIGPNGCDSMEFHESGLLRFKQVSDMGVIHPLYKSTVGGRRNENLVITGNNQPIVFQQGTTKLSVENNKTSITSDIGMQFFDPRTQNILFSTDYETHEFHLPSGVKSLNVQKASTERITSNATSDLNIKVDGRAIVRGNEGVFIMGKTIEFHMGGNMELKAENSIILNGSVMVSTTRLPSSSSGDQLGSGDWVRYKLCMCADGTLFKVQVTSQNMGWQISDNPCGNTH [C307W] — lower, -0.24
- MAAAAAAAAEQQSSNGPVKKSMREKAVERRSVNKEHNSNFKAGYIPIDEDRLHKTGLRGRKGNLAICVIILLFILAVINLIITLVIWAVIRIGPNGCDSMEFHESGLLRFKQVSDMGVIHPLYKSTVGGRRNENLVITGNNQPIVFQQGTTKLSVENNKTSITSDIGMQFFDPRTQNILFSTDYETHEFHLPSGVKSLNVQKASTERITSNATSDLNIKCDGRAIVRGNEGVFIMGKTIEFHMGGNMELKAENSIILNGSVMVSTTRLPSSSSGDQLGSGDWVRYKLCMCADGTLFKVQVTSQNMGCQISDNPCGNTH [V220C] — within 0.2 log units, 0.09
- MAAAAAAAAEQQSSNGPVKKSMREKAVERRSVNKEHNSNFKAGYIPIDEDRLHKTGLRGRKGNLAICVIILLFILAVINLIITLVIWAVIRIGPNGCDSMEFHESGLLRFKQVSDMGVIHPLYKSTVGGRRNENLVITGNNQPIVFQQGTTKLSVENNKTSITSDIGMQFFDPRTQNILFSTDYETHEFCLPSGVKSLNVQKASTERITSNATSDLNIKVDGRAIVRGNEGVFIMGKTIEFHMGGNMELKAENSIILNGSVMVSTTRLPSSSSGDQLGSGDWVRYKLCMCADGTLFKVQVTSQNMGCQISDNPCGNTH [H190C] — lower, -0.62
- MAAAAAAAAEQQSSNGPVKKSMREKAVERRSVNKEHNSNFKAGYIPIDEDRLHKTGLRGRKGNLAICVIILLFILAVINLIITLVIWAVIRIGPNGCDSMEFHESGLLRFKQVSDMGVIHPLYKSTVGGRRNENLVITGNNQPIVFQQGTTKLSVENNKTSITSDIGMQFFDPRTQNILFSTDYETHEFHLPSGVKSLNVQKASTERSTSNATSDLNIKVDGRAIVRGNEGVFIMGKTIEFHMGGNMELKAENSIILNGSVMVSTTRLPSSSSGDQLGSGDWVRYKLCMCADGTLFKVQVTSQNMGCQISDNPCGNTH [I208S] — lower, -1.11
- MAAAAAAAAEQQSSNGPVKKSMREKAVERRSVNKEHNSNFKAGYIPIDEDRLHKTGLRGRKGNLAICVIILLFILAVINLIITLVIWAVIRIGPNGCDSMEFHESGLLRFKQVSDMGVIHPLYKSTVGGRRNENLVITGNNQPIVFQQGTTKLSVENNKTSITSDIGMQFFDPRTQNILFSTDYETHEFHLPSGVKSLNVQKASTERITSNATSDLNIKVDGRAIVRGNEGVFIMGKTIEFHMGGNMELKAENSIILNGSVMVSTTRLPSSSSGDQLGSGDWVRYKLCMCADGTLFKVQVTSQSMGCQISDNPCGNTH [N304S] — lower, -0.45
- MAAAAAAAAEQQSSNGPVKKSMREKAVERRSVNKEHNSNFKAGYIPIDEDRLHKTGLRGRKGNLAICVIILLFILAVINNIITLVIWAVIRIGPNGCDSMEFHESGLLRFKQVSDMGVIHPLYKSTVGGRRNENLVITGNNQPIVFQQGTTKLSVENNKTSITSDIGMQFFDPRTQNILFSTDYETHEFHLPSGVKSLNVQKASTERITSNATSDLNIKVDGRAIVRGNEGVFIMGKTIEFHMGGNMELKAENSIILNGSVMVSTTRLPSSSSGDQLGSGDWVRYKLCMCADGTLFKVQVTSQNMGCQISDNPCGNTH [L80N] — within 0.2 log units, 0.12
- MAAAAAAAAEQQSSNGPVKKSMREKAVERRSVNKEHNSNFKAGYIPIDEDRLHKTGLRGRKGNLAICVIILLFILAVINLIITLVIWAVIRIGPNGCDSMEFHESGLLRFKQVSDMGVIHPLYKSTVGGRRNENLVITGNNQPIVFQQGTTKLSVENNKTSITSDIGMQFFDPRTQNILFSTDYETHEFHLPSGVKSLNVQKASTERITSNATSDLNIKVDGRAIVRGNEGVFIMGKTIEFHMGGNMELKAENSIILNGSVMVSTTRLPSSSSGDQLGSGDWVRYKLCMCADGTLPKVQVTSQNMGCQISDNPCGNTH [F296P] — lower, -0.5
- MAAAAAAAAEQQSSNGPVKKSMREKAVERRSVNKEHNSNFKAGYIPIDEDRLHKTGLRGRKGNLAICVIILLFILAVINLIITLVIWAVIRIGPNGCDSMEFHESGLLRFKQVSDMGVIHPLYKSTVGGRRNENLVITGNNQPIVFQQGTTKLSVENNKTSITSDIGMQFFDPRTQNILFSTDYETHEFHLPSGVKSLNVQKASTERITSNATSDLNIKVDGRAIVRGNEGVFIMGKTIEFHMGGNMELKAENSICLNGSVMVSTTRLPSSSSGDQLGSGDWVRYKLCMCADGTLFKVQVTSQNMGCQISDNPCGNTH [I256C] — lower, -0.43
- MAAAAAAAAEQQSSNGPVKKSMREKAVERRSVNKEHNSNFKAGYIPIDEDRLHKTGLRGRKGNLAICVGILLFILAVINLIITLVIWAVIRIGPNGCDSMEFHESGLLRFKQVSDMGVIHPLYKSTVGGRRNENLVITGNNQPIVFQQGTTKLSVENNKTSITSDIGMQFFDPRTQNILFSTDYETHEFHLPSGVKSLNVQKASTERITSNATSDLNIKVDGRAIVRGNEGVFIMGKTIEFHMGGNMELKAENSIILNGSVMVSTTRLPSSSSGDQLGSGDWVRYKLCMCADGTLFKVQVTSQNMGCQISDNPCGNTH [I69G] — within 0.2 log units, 0.2
- MAAAAAAAAEQQSSNGPVKKSMREKAVERRSVNKEHNSNFKAGYIPIDEDRLHKTGLRGRKGNLAICVIILLFILAVINLIITLVIWAVIRIGPNGCDSMEFHESGLLRFKQVSDMGVIHPLYKSTVGGRRNENLVITGNNQPIVFQQGTTKLSVENNKTSITSDIGMQFFDPRTQNILFSTDYETHEFHLPSGVKSLNVQKASTERITSNATSDLNIKVDGRAIVRGNEGVFIMGKTIEFHMTGNMELKAENSIILNGSVMVSTTRLPSSSSGDQLGSGDWVRYKLCMCADGTLFKVQVTSQNMGCQISDNPCGNTH [G244T] — higher, 0.66
- MAAAAAAAAEQQSSNGPVKKSMREKAVERRSVNKEHNSNFKAGYIPIDEDRLHKTGLRGRKGNLAICVIILLFILAVINLIITLVIWAVIRIGPNGCDSMEFHESGLLRFKQVSDMGVIHPLYKSTVGGRRNENLVITGNNQPIVFQQGTTKLSVENNKTSITSDIGMQFFDPRTQNILFSTDYETHEFHLPSGVKSLNVQKASTERITSNATSDLNIKVDGRAIVRGNEGVFIMGKTIEFHMGGNMELKAENSIILNGSVMVSTTRLPSSSSGDQLGRGDWVRYKLCMCADGTLFKVQVTSQNMGCQISDNPCGNTH [S279R] — within 0.2 log units, 0.16
- MAAAAAAAAEQQSSNGPVKKSMREKAVERRSVNKEHNSNFKAGYIPIDEDRLHKTGLRGRKGNLAICVIILLFILAVINLIITLVIWAVVRIGPNGCDSMEFHESGLLRFKQVSDMGVIHPLYKSTVGGRRNENLVITGNNQPIVFQQGTTKLSVENNKTSITSDIGMQFFDPRTQNILFSTDYETHEFHLPSGVKSLNVQKASTERITSNATSDLNIKVDGRAIVRGNEGVFIMGKTIEFHMGGNMELKAENSIILNGSVMVSTTRLPSSSSGDQLGSGDWVRYKLCMCADGTLFKVQVTSQNMGCQISDNPCGNTH [I90V] — lower, 0.01
- MAAAAAAAAEQQSSNGPVKKSMREKAVERRSVNKEHNSNFKAGYIPIDEDRLHKTGLRGRKGNLAICVIILLFILAVINLIITLVIWAVIRIGPNGCDSMEFHESGLLRFKQVSDMGVIHPLYKSTVGGRRNENLVITGNNQPIVFQQGTTKLSVENNKTSITSDIGMQFFDPRTQNILFSTDYETHEFHLPSGVKSLNVQKASTERITSNATSDLNIKVDGRAIVRGNEGVFIMGKTIEFHMGGNMELKAENSIILNGSGMVSTTRLPSSSSGDQLGSGDWVRYKLCMCADGTLFKVQVTSQNMGCQISDNPCGNTH [V261G] — lower, -0.18
- MAAAAAAAAEQQSSNGPVKKSMREKAVERRSVNKEHNSNFKAGYIPIDEDRLHKTGLRGRKGNLAICVIILLFILAVINLIITLVIWAVIRIGPNGCDSMEFHESGLLRFKQVSDMGVIHPLYKSTVGGRRNENLVITGNNQPIVFQQGTTKLSVENNKTSITSDIGMQFFDPRTQNILFSTDYETHEFHLPSGVKSLNVQKASTERITSYATSDLNIKVDGRAIVRGNEGVFIMGKTIEFHMGGNMELKAENSIILNGSVMVSTTRLPSSSSGDQLGSGDWVRYKLCMCADGTLFKVQVTSQNMGCQISDNPCGNTH [N211Y] — lower, 0
- MAAAAAAAAEQQSSNGPVKKSMREKAVERRSVNKEHNSNFKAGYIPIDEDRLHKTGLRGRKGNLAICVIILLFILAVINLIITLVIWAVIRIGPNGCDSMEFHESGLLRFKQVSDMGVIHPLYKSTVGGRRNENLVITGNNQPIVFQQGTTKLSVENNKTSITSDIGMQFFDPRTQNILFSTDYETHEFHLPSGVKSLNVEKASTERITSNATSDLNIKVDGRAIVRGNEGVFIMGKTIEFHMGGNMELKAENSIILNGSVMVSTTRLPSSSSGDQLGSGDWVRYKLCMCADGTLFKVQVTSQNMGCQISDNPCGNTH [Q201E] — within 0.2 log units, 0.21
- MAAAAAAAAEQQSSNGPVKKSMREKAVERRSVNKEHNSNFKAGYIPIDEDRLHKTGLRGRKGNLAICVIILLFILAVINLIITLVIWAVIRIGPNGCDSMEFHESGLLRFKQVSDMGVIHPLYKSTVGGRRNENLVITGNNQPIVFQQGTTKLSVENNKTSITSDIGMQFFDPRTQNILFSTDYETHEFHLPSGVKSLNVQKASTERITSNATSDLNIKVDGRAIVRGNEGAFIMGKTIEFHMGGNMELKAENSIILNGSVMVSTTRLPSSSSGDQLGSGDWVRYKLCMCADGTLFKVQVTSQNMGCQISDNPCGNTH [V232A] — lower, -0.53
- MAAAAAAAAEQQSSNGPVKKSMREKAVERRSVNKEHNSNFKAGYIPIDEDRLHKTGLRGRKGNLAICVIILLFILAVINLIITLVIWAVIRIGPNGCDSMEFHESGLLRFKQVSDSGVIHPLYKSTVGGRRNENLVITGNNQPIVFQQGTTKLSVENNKTSITSDIGMQFFDPRTQNILFSTDYETHEFHLPSGVKSLNVQKASTERITSNATSDLNIKVDGRAIVRGNEGVFIMGKTIEFHMGGNMELKAENSIILNGSVMVSTTRLPSSSSGDQLGSGDWVRYKLCMCADGTLFKVQVTSQNMGCQISDNPCGNTH [M116S] — lower, -1.38
